Assay results: US20110135636A1 (SYMPHOGEN A S, published 2011)
One block for each binder: values may come before it.

Key:
[1] = target: T1, full length human EGFR expressed on the cell surface (human, UniProt P00533 25-1210); assay: cell ELISA, IgG titrated on unfixed A431-NS cells after saturation with Fab 992 and Fab 1024; given as ED50
T1 construct: whole, on cells; also called EGFR on A431-NS cells; EGFR on HN5 cells
Method: (§1) Cell ELISA: The ELISA was performed essentially as described in example 15 with modifications. Cells were left unfixed to allow conformational EGFR flexibility after antibody additions. Briefly, 10,000 A431-NS cells were grown in 96 well ELISA plates containing DMEM with added 0.5% FCS and 1% P/S at 37° C., 5% CO₂ overnight. […] 25 μl DMEM containing 1% BSA was added to wells used for testing of IgG antibodies without added Fab fragments. […] Next, wells were washed four times with PBS and 50 μl of a secondary monoclonal Mouse-anti-Human (Fc specific) HRP conjugate diluted 1:5000 in DMEM containing 1% BSA was added and incubated on ice for 30 min. Finally wells were washed four times with PBS and plates developed by adding 50 μl/well TMB substrate and read at 620 nm every 5-15-30 min. After incubation with substrate the reaction was stopped by addition of 1 M H₂SO₄ and absorbance read at 450 nm. The functional affinity expressed as ED50 values were calculated by subtraction of the average background binding with secondary reagent only, followed by normalization of the binding curves by plotting % maximal binding relative to each antibody tested.
(§2) Investigations of antibody induced binding enhancements were determined by concurrent ELISA binding studies, employing same secondary antibody reagent and incubation times.

[2] = target: T2, wild type full length EGFR purified from A431 cells (human, UniProt P00533 25-1210); assay: EGF blocking ELISA on coated full length EGFR; blocked ligand biotinylated EGF
T2 construct: mature; Bought; coated on ELISA wells; also called full length EGFR receptor antigen; Sigma E3641
Method: The next morning wells were washed twice with PBS-T and blocked for one hour with 150 μl PBS-T-1% BSA at room temperature, followed by wash twice in PBS-T. Next 80 μl of serially diluted Anti-EGFR antibodies and control antibodies were added to wells and incubated 30 min at room temperature. […] Subsequently wells were washed five times with PBS-T, followed by incubation with 100 μl/well Streptavidin-HRP secondary reagent diluted 1:1000 in blocking buffer and incubation at room temperature for 30 min. Finally wells were washed five times with PBS-T and plates were developed by adding 100 μl/well TMB substrate and incubated for 60 min. After incubation the reaction was stopped by addition of 1 M H₂SO₄; 100 μl/well and plates were read at OD 450 nm.

[3] = target: T3, Cynomolgus EGFR extracellular domain (Cynomolgus monkey (Macaca fascicularis), UniProt P55245 25-645 (rhesus entry)); assay: ELISA on coated Cynomolgus rEGFR ECD
T3 construct: Cloned without signal peptide; also called Cynomolgus rEGFR ECD; Cynomolgus EGFR ECD
Method: To verify that tested Anti-EGFR antibodies bound equally well to both Human and Cynomolgus EGFR ECD and accordingly warranting toxicology studies in Cynomolgus monkeys, serial four fold dilutions of antibodies beginning from 1 μg/ml were tested by ELISA for binding to recombinant Human and Cynomolgus EGFR ECD proteins. […] ELISA wells were coated with 50 μl/well of full length EGFR at a concentration of 1 μg/ml in PBS overnight at 4° C. The next morning wells were washed twice with PBS-T and blocked for one hour with 100 μl PBS-T-1% BSA at room temperature, followed by wash twice in PBS-T. Next 50 μl of serially diluted Anti-EGFR antibodies and control antibodies were added to wells and incubated for one hour at room temperature. After antibody incubation wells were washed five times with PBS-T, followed by incubation with 50 μl/well Streptavidin-HRP secondary reagent diluted 1:3000 in blocking buffer and incubation at room temperature for 30 min. Finally wells were washed five times with PBS-T and plates were developed by adding 50 μL/well TMB substrate and incubated at room temperature. After incubation the reaction was stopped by addition of 1 M H₂SO₄; 100 μl/well and plates were read at OD 450 nm.

[4] = target: T1, full length human EGFR expressed on the …; assay: cell ELISA, IgG titrated on unfixed A431-NS cells after saturation with Fab 992 and Fab 1030; given as ED50
Method: as §1, §2

[5] = target: T4, recombinant human EGFR extracellular domain with 6xHis (human, UniProt P00533 25-645); assay: SPR (BIAcore 2000); IgG captured on anti-human Fc, soluble EGFR ECD injected; Scatchard analysis
T4 construct: In-house produced; also called 6xHis EGFR ECD; soluble human EGFR ECD; not shown: 6xHis tag
Method: Kinetic analysis of the full length IgG antibodies of the invention was performed on a BIAcore 2000, employing an assay as described in (Canziani, Klakamp, et al. 2004, Anal. Biochem, 325:301-307) allowing measurement of monovalent affinities of whole IgG molecules against soluble antigen. […] The chip surface was regenerated in between cycles by stripping the captured antibody/antigen complexes with a 10 second injection of 100 mM H₃PO₄. […] The association rate constant (ka) and dissociation constant (kd) were evaluated globally from the generated sensograms with the BIA evaluation software 4.1 provided by the manufacturer.

[6] = target: T1, full length human EGFR expressed on the …; assay: cell ELISA, IgG titrated on unfixed A431-NS cells after saturation with Fab 1024 and Fab 1030; given as ED50
Method: as §1, §2

[7] = target: T1, full length human EGFR expressed on the …; assay: cell ELISA, IgG titrated on unfixed A431-NS cells after saturation with Fab 1024; given as ED50
Method: as §1, §2

[8] = target: T1, full length human EGFR expressed on the …; assay: cell ELISA, IgG titrated on unfixed A431-NS cells after saturation with Fab 1030; given as ED50
Method: as §1, §2

B1: antibody 1030 (antibody, human IgG1, kappa, V domains shown)
VH: EVQLVESGGGLVKPGGSLKLSCAASGFTFSSYALSWVRQTPERRLEWVASISGVGSTYFPDSVKGRFTMSRDNARNILYLQMSSLRSEDTAMYYCARGSDGYFYAMDYWGQGTSVTVSS
VL: DIVLTQSPASLAVSLGQRATISCRASKSVSTSGYSFMHWYQLKPGQPPKLLIYLASNLESGVPARFSGSGSGTDFTLNIHPVEEEDAATYYCQHSREFPLTFGGGTKLEIKR
notes: Chimeric IgG1 kappa
EC50 [1]: 2200 pM

B4: antibody 992 (antibody, human IgG1, kappa, V domains shown)
VH: EVQLQQPGSELVRPGASVKLSCKASGYTFTSYWMHWVKQRPGQGLEWIGNIYPGSRSTNYDEKFKSKATLTVDTSSSTAYMQLSSLTSEDSAVYYCTRNGDYYVSSGDAMDYWGQGTSVTVSS
VL: DIQMTQTTSSLSASLGDRVTISCRTSQDIGNYLNWYQQKPDGTVKLLIYYTSRLHSGVPSRFSGSGSGTDFSLTINNVEQEDVATYFCQHYNTVPPTFGGGTKLEIKR
notes: Chimeric mouse/human IgG1 kappa; the VL entry includes the human kappa constant region
Kd [5]: 170000 pM
EC50 [6]: 500 pM
EC50 [7]: 500 pM
EC50 [8]: 400 pM

B5: antibody 1260 (antibody, human IgG1, kappa, V domains shown)
VH: QVQLKESGPGLVAPSQSLSITCTVSGFSLTTYGVHWVRQPPGKGLEWLGVIWAGGSTNYNSALMSRLSIKKDNSKSQVFLKMNSLQTDDTAMYYCARAYGYNFDYWGQGTTLTVSS
VL: DIQMTQTTSSLSASLGDRVTISCSASQGITNYLNWYQQKPDGTVKLLIYYSSSLHSGVPSRFSGSGSGTDYSLTISNLEPEDIATYYCQQYSEIPYTFGGGTKLELKR
notes: Chimeric IgG1 kappa
IC50 (read off the curve) [2]: ~50 ng mAb/ml

Next, values leading:

IC50 (read off the curve) [2]: ~20 ng mAb/ml
binding result [3]: binds
B2: antibody 1208 (antibody, human IgG1, kappa, V domains shown)
VH: EVQLVESGGGLVKPGGSLKLSCAASGFAFSSYDMSWVRQTPEKRLEWVAYIGSGDDNTHYPDSVKGRFTISRHNAKNTLYLQMSSLKSEDTAMYYCARQKYGNYGDTMDYWGQGTSVTVSS
VL: DVVMTQTPLSLPVSLGDQASISCRSSQSLVHSNGNTYLHWYLQKPGQSPKLLIYKVSNRFSGVPDRFSGSGSGTDFTLKISRVEAEDLGVYFCSQSTHVPTFGGGTKLEIKR
notes: Chimeric IgG1 kappa; also called clone 1208

EC50 [4]: 800 pM
B3: antibody 1024 (antibody, human IgG1, kappa, V domains shown)
VH: QVQLQQPGAELVEPGGSVKLSCKASGYTFTSHWMHWVKQRPGQGLEWIGEINPSSGRNNYNEKFKSKATLTVDKSSSTAYMQFSSLTSEDSAVYYCVRYYGYDEAMDYWGQGTSVTVSS
VL: DIVMTQAAFSNPVTLGTSASISCRSSKSLLHSNGITYLYWYLQKPGQSPQLLIYQMSNLASGVPDRFSSSGSGTDFTLRISRVEAEDVGVYYCAQNLELPYTFGGGTKLEIKR
notes: Chimeric IgG1 kappa
